Measurements published in patent US20050048071A1 (RUSH UNIVERSITY MEDICAL CENTER, published 2005).

Assays:
[1] = target: HLA-A2.1 MHC class I molecules on T2 cells (human); test: T2 cells pulsed with peptide, anti-HLA-A2.1 flow cytometry; Brefeldin A treatment: 4 hr
Procedure: (§1) T2 cells were washed and resuspended in serum-free AIM-VTM (Gibco-Life Technologies, Rockville, Md.) at a final concentration of 1×10⁶ cells/ml and transferred into a 24-well tissue culture plate. […] After incubation, cells were washed once with PBS containing 3% FCS, and stained with mouse anti-HLA-A2.1 monoclonal antibody for 15 minutes at 4° C. After washing, the cells were incubated with goat anti-mouse IgG(F(ab′)2)-FITC for 15 minutes at 4° C. The cells were washed once, and fluorescence was measured on a FACSort™ flow cytometer (Becton Dickson, San Jose, Calif.). The fluorescence index was calculated as follows: (mean channel fluorescence of sample−mean channel fluorescence of unstained control cells)/mean channel fluorescence of unstained control cells.

[2] = target: HLA-A2.1 MHC class I molecules on T2 cells (human); test: T2 cells pulsed with peptide, anti-HLA-A2.1 flow cytometry; Brefeldin A treatment: Overnight
Procedure: as §1

[3] = target: HLA-A2.1 MHC class I molecules on T2 cells (human); test: T2 cells pulsed with peptide, anti-HLA-A2.1 flow cytometry; Brefeldin A treatment: 6 hr
Procedure: as §1

[4] = target: HLA-A2.1 MHC class I molecules on T2 cells (human); test: T2 cells pulsed with peptide, anti-HLA-A2.1 flow cytometry; Brefeldin A treatment: 0 hr
Procedure: as §1

[5] = target: HLA-A2.1 MHC class I molecules on T2 cells (human); test: T2 cells pulsed with peptide, anti-HLA-A2.1 flow cytometry; Brefeldin A treatment: 2 hr
Procedure: as §1

[6] = target: HLA-A2.1 MHC class I molecules on T2 cells (human); test: T2 cells pulsed with peptide, anti-HLA-A2.1 flow cytometry; Brefeldin A treatment: None
Procedure: as §1

FIRAHTPYI (Synthetic nonamer) [CD20 peptide FIRAHTPYI (SEQ ID NO: 8)]
binding score (HLA-A2.1 fluorescence on T2 cells) [1]: 192
binding score (HLA-A2.1 fluorescence on T2 cells) [2]: 250
binding score (HLA-A2.1 fluorescence on T2 cells) [3]: 154
binding score (HLA-A2.1 fluorescence on T2 cells) [4]: 232
binding score (HLA-A2.1 fluorescence on T2 cells) [5]: 215
binding score (HLA-A2.1 fluorescence on T2 cells) [6]: 167

SLFLGILSV (Synthetic nonamer) [CD20 peptide SLFLGILSV (SEQ ID NO: 6)]
binding score (HLA-A2.1 fluorescence on T2 cells) [1]: 762
binding score (HLA-A2.1 fluorescence on T2 cells) [2]: 410
binding score (HLA-A2.1 fluorescence on T2 cells) [3]: 770
binding score (HLA-A2.1 fluorescence on T2 cells) [4]: 672
binding score (HLA-A2.1 fluorescence on T2 cells) [5]: 703
binding score (HLA-A2.1 fluorescence on T2 cells) [6]: 637

SHFLKMESL (Synthetic nonamer) [CD20 peptide SHFLKMESL (SEQ ID NO: 11)]
binding score (HLA-A2.1 fluorescence on T2 cells) [1]: 199
binding score (HLA-A2.1 fluorescence on T2 cells) [2]: 277
binding score (HLA-A2.1 fluorescence on T2 cells) [3]: 127
binding score (HLA-A2.1 fluorescence on T2 cells) [4]: 216
binding score (HLA-A2.1 fluorescence on T2 cells) [5]: 218
binding score (HLA-A2.1 fluorescence on T2 cells) [6]: 172

LLFLTPMEV (Synthetic nonamer) [CD19 peptide LLFLTPMEV (SEQ ID NO: 3)]
binding score (HLA-A2.1 fluorescence on T2 cells) [1]: 880
binding score (HLA-A2.1 fluorescence on T2 cells) [2]: 453
binding score (HLA-A2.1 fluorescence on T2 cells) [3]: 573
binding score (HLA-A2.1 fluorescence on T2 cells) [4]: 770
binding score (HLA-A2.1 fluorescence on T2 cells) [5]: 924
binding score (HLA-A2.1 fluorescence on T2 cells) [6]: 556

KLMSPKLYV (Synthetic nonamer) [CD19 peptide KLMSPKLYV (SEQ ID NO: 4)]
binding score (HLA-A2.1 fluorescence on T2 cells) [1]: 796
binding score (HLA-A2.1 fluorescence on T2 cells) [2]: 540
binding score (HLA-A2.1 fluorescence on T2 cells) [3]: 642
binding score (HLA-A2.1 fluorescence on T2 cells) [4]: 683

RLLFFLLFL (Synthetic nonamer) [CD19 peptide RLLFFLLFL (SEQ ID NO: 1)]
binding score (HLA-A2.1 fluorescence on T2 cells) [1]: 174
binding score (HLA-A2.1 fluorescence on T2 cells) [2]: 248
binding score (HLA-A2.1 fluorescence on T2 cells) [3]: 152
binding score (HLA-A2.1 fluorescence on T2 cells) [4]: 167
binding score (HLA-A2.1 fluorescence on T2 cells) [5]: 202

LLFFLLFLV [CD19 peptide LLFFLLFLV (SEQ ID NO: 5)]
binding score (HLA-A2.1 fluorescence on T2 cells) [1]: 163
binding score (HLA-A2.1 fluorescence on T2 cells) [2]: 200
binding score (HLA-A2.1 fluorescence on T2 cells) [3]: 143
binding score (HLA-A2.1 fluorescence on T2 cells) [4]: 200
binding score (HLA-A2.1 fluorescence on T2 cells) [5]: 202
binding score (HLA-A2.1 fluorescence on T2 cells) [6]: 164

AISGMILSI (Synthetic nonamer) [CD20 peptide AISGMILSI (SEQ ID NO: 7)]
binding score (HLA-A2.1 fluorescence on T2 cells) [1]: 165
binding score (HLA-A2.1 fluorescence on T2 cells) [2]: 232
binding score (HLA-A2.1 fluorescence on T2 cells) [3]: 144
binding score (HLA-A2.1 fluorescence on T2 cells) [4]: 220
binding score (HLA-A2.1 fluorescence on T2 cells) [5]: 256
binding score (HLA-A2.1 fluorescence on T2 cells) [6]: 162

LKMESLNFI (Synthetic nonamer) [CD20 peptide LKMESLNFI (SEQ ID NO: 10)]
binding score (HLA-A2.1 fluorescence on T2 cells) [1]: 227
binding score (HLA-A2.1 fluorescence on T2 cells) [2]: 225
binding score (HLA-A2.1 fluorescence on T2 cells) [3]: 190
binding score (HLA-A2.1 fluorescence on T2 cells) [4]: 245
binding score (HLA-A2.1 fluorescence on T2 cells) [5]: 291
binding score (HLA-A2.1 fluorescence on T2 cells) [6]: 215

TLAYLIFCL (Synthetic nonamer) [CD19 peptide TLAYLIFCL (SEQ ID NO: 2)]
binding score (HLA-A2.1 fluorescence on T2 cells) [1]: 513
binding score (HLA-A2.1 fluorescence on T2 cells) [2]: 312
binding score (HLA-A2.1 fluorescence on T2 cells) [3]: 387
binding score (HLA-A2.1 fluorescence on T2 cells) [4]: 530
binding score (HLA-A2.1 fluorescence on T2 cells) [5]: 608
binding score (HLA-A2.1 fluorescence on T2 cells) [6]: 363

SLNFIRAHT (Synthetic nonamer) [CD20 peptide SLNFIRAHT (SEQ ID NO: 9)]
binding score (HLA-A2.1 fluorescence on T2 cells) [1]: 180
binding score (HLA-A2.1 fluorescence on T2 cells) [2]: 195
binding score (HLA-A2.1 fluorescence on T2 cells) [3]: 128
binding score (HLA-A2.1 fluorescence on T2 cells) [4]: 212
binding score (HLA-A2.1 fluorescence on T2 cells) [5]: 200
binding score (HLA-A2.1 fluorescence on T2 cells) [6]: 172
